3 sequences from the Immune Epitope Database (IEDB) can be followed below.

For one assay, the target named is HLA-A*03:19. The assay can be described thus: IEDB peptide-MHC binding, purified MHC/competitive/fluorescence; filed as Kd, often an IC50 or EC50 that approximates it; ≥ and ≤ were set here for values at or beyond the usual limits of such assays. Conditions: source organism: Bacillus anthracis str. A0488.
For another assay, the target named is HLA-A*32:07. The description is as above. The following applies: source organism: Bacillus anthracis str. A0488.
The next assay addresses HLA-B*15:42. The assay is described as above. Conditions: source organism: Bacillus anthracis str. A0488.
For another assay, the target named is HLA-B*83:01. The description is as above. The following applies: source organism: Bacillus anthracis str. A0488.
A further assay concerns the target HLA-B*45:06. The assay is described as above. The following applies: source organism: Bacillus anthracis str. A0488.
The target of another assay is HLA-B*40:13. The assay is described as above. Conditions: source organism: Bacillus anthracis str. A0488.
The next assay has as its target HLA-B*27:20. Described as above. Conditions: source organism: Bacillus anthracis str. A0488.
In a further assay the target is HLA-C*06:02. The assay is described as above. Conditions: source organism: Bacillus anthracis str. A0488.
In another assay the target is HLA-A*24:03. The assay is described as above. Conditions: source organism: Bacillus anthracis str. A0488.
For a further assay, the target named is HLA-C*15:02. The assay can be described thus: IEDB peptide-MHC binding, purified MHC/direct/fluorescence; filed as Kd, often an IC50 or EC50 that approximates it; ≥ and ≤ were set here for values at or beyond the usual limits of such assays. The following applies: source organism: Bacillus anthracis str. A0488.
A further assay addresses HLA-B*15:17. The experiment in a line: IEDB peptide-MHC binding, purified MHC/competitive/fluorescence; filed as Kd, often an IC50 or EC50 that approximates it; ≥ and ≤ were set here for values at or beyond the usual limits of such assays. The following applies: source organism: Mycobacterium leprae.
For the next assay, the target named is HLA-A*11:01. Described as above. Conditions: source organism: Mycobacterium leprae.
A further assay deals with HLA-A*30:01. The description is as above. The following applies: source organism: Mycobacterium leprae.
Another assay has as its target HLA-A*01:01. Described as above. The following applies: source organism: Mycobacterium leprae.
The next assay has as its target HLA-B*58:01. The assay is described as above. The following applies: source organism: Mycobacterium leprae.
In the next assay the target is HLA-B*08:02. The assay is described as above. The following applies: source organism: Mycobacterium leprae.
The next assay deals with HLA-A*26:02. The description is as above. The following applies: source organism: Mycobacterium leprae.
For another assay, the target named is HLA-B*40:01. The description is as above. Conditions: source organism: Mycobacterium leprae.
A further assay has as its target HLA-B*57:01. Described as above. The following applies: source organism: Mycobacterium leprae.
The target of a further assay is HLA-A*02:06. Described as above. The following applies: source organism: Mycobacterium leprae.
Another assay deals with HLA-B*18:01. The assay is described as above. The following applies: source organism: Mycobacterium leprae.
In another assay the target is HLA-B*07:02. Described as above. The following applies: source organism: Mycobacterium leprae.
The next assay deals with HLA-A*68:02. The description is as above. Conditions: source organism: Mycobacterium leprae.
For a further assay, the target named is HLA-A*69:01. The description is as above. Conditions: source organism: Mycobacterium leprae.
The next assay deals with HLA-B*15:01. The assay is described as above. Conditions: source organism: Mycobacterium leprae.
Another assay addresses HLA-A*02:01. The assay is described as above. The following applies: source organism: Mycobacterium leprae.
Assay [1] addresses HLA-B*46:01. The assay is described as above. Conditions: source organism: Mycobacterium leprae.
The target in the next assay is HLA-B*08:01. Described as above. The following applies: source organism: Mycobacterium leprae.
Another assay concerns the target HLA-B*35:01. The assay is described as above. Conditions: source organism: Mycobacterium leprae.
Another assay concerns the target HLA-B*08:03. The assay is described as above. The following applies: source organism: Mycobacterium leprae.
For the next assay, the target named is HLA-B*48:01. Described as above. The following applies: source organism: Mycobacterium leprae.
The next assay deals with HLA-A*02:03. Described as above. The following applies: source organism: Mycobacterium leprae.
A further assay concerns the target HLA-B*27:05. Described as above. Conditions: source organism: Mycobacterium leprae.
In another assay the target is HLA-A*26:03. The description is as above. The following applies: source organism: Mycobacterium leprae.
The target of the next assay is HLA-A*31:01. The description is as above. The following applies: source organism: Mycobacterium leprae.
Assay [2] concerns the target HLA-B*46:01. The experiment in a line: IEDB peptide-MHC binding, purified MHC/direct/fluorescence; filed as Kd, often an IC50 or EC50 that approximates it; ≥ and ≤ were set here for values at or beyond the usual limits of such assays. The following applies: source organism: Dengue virus.
Another assay concerns the target HLA-B*15:02. The description is as above. The following applies: source organism: dengue virus type 1.
A further assay concerns the target HLA-A*30:02. The experiment in a line: IEDB peptide-MHC binding, purified MHC/competitive/radioactivity; filed as Kd, often an IC50 or EC50 that approximates it; ≥ and ≤ were set here for values at or beyond the usual limits of such assays. Conditions: source organism: Dengue virus 1 Brazil/97-11/1997.

Where only a bound is given, the exact number is not on record here.

Usually Kd stands for a measure of binding affinity in units of concentration. For RFFKHFMSL, the Kd with HLA-A*03:19 was 0.0461 µM; with HLA-A*32:07, 0.0004 µM; with HLA-B*15:42, at least 5 µM; in the assay with HLA-B*83:01, at least 5 µM; in the assay with HLA-B*45:06, at least 5 µM; with HLA-B*40:13, 0.0052 µM. Besides, the equilibrium dissociation constant (Kd) with HLA-B*27:20 is 0.0161 µM; in the assay with HLA-C*06:02, 1.19 µM; with HLA-A*24:03 it was at most 0.0001 µM; with HLA-C*15:02, 1.57 µM.
With TVGYMYIMK, the Kd in the assay with HLA-B*15:17 is at least 20 µM; with HLA-A*11:01, 0.0049 µM; with HLA-A*30:01, 0.0488 µM; with HLA-A*01:01 it was at least 20 µM; with HLA-B*58:01 it was at least 20 µM; with HLA-B*08:02, at least 20 µM. In addition, the equilibrium dissociation constant (Kd) in the assay with HLA-A*26:02, with HLA-B*40:01, with HLA-B*57:01, with HLA-A*02:06, in the assay with HLA-B*18:01 and in the assay with HLA-B*07:02 was at least 20 µM each time. For the same sequence, the Kd with HLA-A*68:02, in the assay with HLA-A*69:01, in the assay with HLA-B*15:01, with HLA-A*02:01, with HLA-B*46:01 [1] and in the assay with HLA-B*08:01 was at least 20 µM throughout. Further, the Kd with HLA-B*35:01, with HLA-B*08:03, with HLA-B*48:01, with HLA-A*02:03, with HLA-B*27:05 and with HLA-A*26:03 was at least 20 µM throughout. For the same sequence, in the assay with HLA-A*31:01, the Kd is at least 5 µM.
As for KLEGKIVQY, the Kd with HLA-B*46:01 [2] was at least 20 µM; with HLA-B*15:02, at least 20 µM; with HLA-A*30:02 it was 0.833 µM.
